The target in assay [1] is T1, mTOR(FRB) and FKBP12 interaction (Homo sapiens, UniProt P42345+P62942).
T1 construct: region having the 2025th to 2114th amino acids of the mTOR protein; expressed in transfected cells; host or cells: HeLaS3; 293T for some combinations with FKBP12-Tankyrase(SAM)
In words: Degree of fluorescent focus (assembly) formation after rapamycin, fluorescent proteins fused to mTOR(FRB) (Example 8, Table 1). The settings on record: fluorescent protein fused to mTOR(FRB); for degree of fluorescent focus formation, DGKd (SAM): with FKBP12-DGKd(SAM); for degree of fluorescent focus formation, TEL (SAM): with FKBP12-TEL(SAM); for degree of fluorescent focus formation, Tankyrase (SAM): with FKBP12-Tankyrase(SAM), some combinations in 293T cells; for degree of fluorescent focus formation, P62 (PB1): with p62(PB1)-FKBP12. The assay is classed as cell-based. As for the experimental part:
Note that plasmid DNAs encoding fusion proteins composed of mTOR(FRB) and the corresponding fluorescent proteins were prepared as appropriate by the same method as that described in Example 2. Moreover, regarding the combinations of FKBP12-Tankyrase(SAM) with mKO2, mKeima, mMiCy1, mKO1, MiCy1, and TGuv, the test was conducted by introducing the genes into 293T cells. Specifically, the 293T cells were cultured in DMEM High glucose (manufactured by SIGMA ALDRICH CO.) containing 10% FBS (manufactured by Equitech-Bio Inc.). Moreover, the 293T cells were seeded onto an 8-well chamber (manufactured by Nunc A/S) 6 hours before the plasmid DNAs were introduced. Further, at the time of the transfection, 200 ng of the plasmid DNA encoding FKBP12-Tankyrase(SAM) and 200 ng of one of the plasmid DNAs encoding fusion proteins composed of the fluorescent proteins and mTOR(FRB) were diluted with 30 μl of OptiMEM (manufactured by Life Technologies Corporation), and 1.2 μl of TurboFect Transfection Reagent (manufactured by Thermo Fisher Scientific Inc.) was added thereto and stirred. Then, the resultant was further mixed with 300 μl of the culture solution, subsequently added to the 293T cells, and observed 48 hours later.

In assay [2] the target is T1, mTOR(FRB) and FKBP12 interaction. In words: Degree of fluorescent focus (assembly) formation after rapamycin with TFG(PB1) (Example 9, Table 2). It counts as cell-based. As to conditions: fluorescent protein fused to mTOR(FRB), KO1 and dAG (AB) in 293T cells.

T1 sequence (P42345 2025-2114): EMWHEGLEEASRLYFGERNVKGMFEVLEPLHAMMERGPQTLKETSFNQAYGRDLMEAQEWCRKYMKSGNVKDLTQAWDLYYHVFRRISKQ
T1 sequence (P62942 whole entry): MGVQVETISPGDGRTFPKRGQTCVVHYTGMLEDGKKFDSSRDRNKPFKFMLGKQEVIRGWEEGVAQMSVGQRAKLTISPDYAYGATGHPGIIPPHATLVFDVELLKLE

B1: COR5: fluorescent protein capable of homotetramerization, SEQ ID NO: 172 (protein)
chain: MALSKHGLTKNMTTKYRMEGCVDGHKFVITGDGIGDPFEGKQTSIDLCVVEGGPLPFSEDILSTVFDYGNRVFTKYPQDLVDYFKNSCPAGYTWQRSFLFEDGAVCTASADIRVSVEENCFYHESKFHGVNFPADGPVMKKMTTNWEPSCEKITPILNEGILKGDVTMFLLLKDGGRYRCQFDTVYKAKADAKDMPEMHFIQHELTREDRSDAKHQKWRLVESAIAYRSTPP
modifications: Synthetic sequence COR5
Regarding B1, in assay [1], the “degree of fluorescent focus formation, DGKd (SAM)” value (“degree … DGKd (SAM)” below) is recorded as “+++ (fluorescent foci were observed in 50% or more of the HeLaS3 cells)”; the “degree of fluorescent focus formation, TEL (SAM)” value (shortened to “degree … TEL (SAM)”) is given as “+++ (fluorescent foci were observed in 50% or more of the HeLaS3 cells)”; the “degree of fluorescent focus formation, Tankyrase (SAM)” value (“degree … Tankyrase (SAM)” below) is listed as “+++ (fluorescent foci were observed in 50% or more of the HeLaS3 cells)”; the “degree of fluorescent focus formation, P62 (PB1)” value (“degree … P62 (PB1)” below) is on record as “+++ (fluorescent foci were observed in 50% or more of the HeLaS3 cells)”. Also, in assay [2], the “degree of fluorescent focus formation, TFG (PB1)” value (from here on “degree … TFG (PB1)”) is “++ (fluorescent foci were observed in 50% or less of the HeLaS3 cells)”.

B2: monomeric Kikume Green-Red1 (protein)
chain: MVSVITSEMKIELRMEGSVNGHKFVITGKGSGRPYEGTQTVDLTVIEGGPLPFAFDILTTAFHYGNRVFVEYPEEIVDYFKQSFPEGYSWERSMSYEDGGICLATNNITMKKDGSNTFVNEIRFDGTNFPANGPVMQRKTVKWEPSTEKMYVRDGVLKGDVEMALLLEGGGHYRCDFRTTYKAKKVVQLPDYHYVDHQMEITSHDKDYNKVKAYEHAKAYSGTYRGAKYEFEA
modifications: Synthetic sequence mKikGR1
For B2, in assay [1], the “degree … DGKd (SAM)” value is “+++ (fluorescent foci were observed in 50% or more of the HeLaS3 cells)”; the “degree … TEL (SAM)” value was “+++ (fluorescent foci were observed in 50% or more of the HeLaS3 cells)”; the “degree … Tankyrase (SAM)” value is listed as “+++ (fluorescent foci were observed in 50% or more of the HeLaS3 cells)”; the “degree … P62 (PB1)” value is given as “+++ (fluorescent foci were observed in 50% or more of the HeLaS3 cells)”. The “degree … TFG (PB1)” value in assay [2] is “++ (fluorescent foci were observed in 50% or less of the HeLaS3 cells)”.

B3: DsRed2: fluorescent protein capable of homotetramerization, SEQ ID NO: 153 (protein)
chain: MASSENVITEFMRFKVRMEGTVNGHEFEIEGEGEGRPYEGHNTVKLKVTKGGPLPFAWDILSPQFQYGSKVYVKHPADIPDYKKLSFPEGFKWERVMNFEDGGVATVTQDSSLQDGCFIYKVKFIGVNFPSDGPVMQKKTMGWEASTERLYPRDGVLKGETHKALKLKDGGHYLVEFKSIYMAKKPVQLPGYYYVDAKLDITSHNEDYTIVEQYERTEGRHHLFL
modifications: Synthetic sequence DsRed2
For B3, in assay [1], the “degree … DGKd (SAM)” value is listed as “+++ (fluorescent foci were observed in 50% or more of the HeLaS3 cells)”; the “degree … TEL (SAM)” value is “+++ (fluorescent foci were observed in 50% or more of the HeLaS3 cells)”; the “degree … Tankyrase (SAM)” value was “+++ (fluorescent foci were observed in 50% or more of the HeLaS3 cells)”; the “degree … P62 (PB1)” value is recorded as “+++ (fluorescent foci were observed in 50% or more of the HeLaS3 cells)”. The “degree … TFG (PB1)” value in assay [2] is reported as “++ (fluorescent foci were observed in 50% or less of the HeLaS3 cells)”.

These data come from patent US9766250B2, “Method for detecting protein-protein interaction” (MEDICAL & BIOLOGICAL LABORATORIES CO., LTD., priority 2011, dated 2017).
